Columns and labels:
[1] = biological target: biotinylated human glucagon (Homo sapiens) (UniProt P01275); test: SPR; conditions: 37 C, HBS-EP pH 7.4
[2] = biological target: T1, human alpha-CGRP (Homo sapiens) (UniProt P06881); test: SPR; conditions: L-RNA, 37 C
T1 sequence: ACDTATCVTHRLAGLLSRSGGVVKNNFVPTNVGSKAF

[3] = biological target: biotinylated human glucagon (Homo sapiens) (UniProt P01275); test: competition; conditions: L-DNA; competitive pull-down, 37 C, 1 mM Mg, 1 mM Ca
human C5a (Homo sapiens) = biological target: T2, human C5a (Homo sapiens) (UniProt P01031); test: SPR; conditions: L-RNA; 37 C, HBS-EP pH 7.4
T2 sequence: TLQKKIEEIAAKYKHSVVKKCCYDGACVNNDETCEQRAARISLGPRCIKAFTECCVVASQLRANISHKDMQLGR

Sequence of biotinylated human glucagon (Homo sapiens) (P01275 53-81): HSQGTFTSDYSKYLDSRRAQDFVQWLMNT

Sequence: ACTCGAGAGGAAAGGTTGGTAAAGGTTCGGTTGGATTCACTCGAGT [259-H6-002]
- Kd ([1]; L-DNA): 10.9 nM

Sequence: CAGACGUGUGUGGGUAGAUGCACCUGCGAUUCGCUAAAAAGUGCCACACGUCUG [NOX-G11stabi2]
- Kd ([1]; L-RNA): 67.1 nM

Sequence: CCGUGCUGUCGGAGACUACUCGUCGAGUAGAAAUAGGUCCCCUCCCACGG [226-F2-001-D41/D44]
- Kd ([2]; dC at 41 and 44, 13-fold improvement over parent): 0.2 nM

Sequence: CCGUGCUGUCGGAGACUACUCGUCGAGUAGAAAUAGGUCCCCUCCCACGG [226-F2-001-D41]
- Kd ([2]; dC at 41, HBS-EP pH 7.4): 0.55 nM

Sequence: CCGUGCUGUCGGAGACUACUCGUCGAGUAGAAAUAGGUCCCCUCCCACGG [226-F2-001-D44]
- Kd ([2]; dC at 44, HBS-EP pH 7.4): 0.52 nM

Sequence: CCGUGCUGUCGGAGACUACUCGUCGAGUAGAAAUAGGUCCCCUCCCACGG [226-F2-001]
- Kd ([2]; HBS-EP pH 7.4): 2.6 nM

Sequence: GCAGTGGGGAAATGGGAGGGCTAGGTGGAAGGAATCTGAGCTACTGC [257-E1-001]
- Kd [3]: 186 nM

Sequence: GCCUGAUGUGGUGGUGAAGGGUUGUUGGGUGUCGACGCACAGGC [NOX-D19001]
- Kd (human C5a (Homo sapiens)): 1.4 nM

— patent US20140350088
